Results on 32 molecules are retold here after patent US6403764.

Positions count from the first letter of the chain named. Numbers in names are those of the source. Some results are limits rather than exact numbers.

The target in experiment [1] is T1, human IGFBP-1 (human, UniProt P08833 26-259).
T1 construct: mature; Secreted recombinant protein; also called IGFBP-I
T1 sequence (looked up): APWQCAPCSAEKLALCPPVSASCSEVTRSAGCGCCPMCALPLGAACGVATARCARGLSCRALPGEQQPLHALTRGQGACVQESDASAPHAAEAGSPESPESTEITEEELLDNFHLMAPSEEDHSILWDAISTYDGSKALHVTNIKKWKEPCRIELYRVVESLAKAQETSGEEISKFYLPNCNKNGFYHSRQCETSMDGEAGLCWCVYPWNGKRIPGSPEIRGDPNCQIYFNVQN
Nature of the experiment: competitive phage ELISA; IC50mut/IC50 G1S-A70V.

Experiment [2] addresses T2, recombinant human IGFBP-3 (human, UniProt P17936 28-291).
T2 construct: mature; Secreted recombinant protein
Kind of experiment: competitive phage ELISA; IC50mut/IC50 G1S-A70V.

Experiment [3] addresses T1, human IGFBP-1. Kind of experiment: competitive phage ELISA. As for the experimental part:
(§1) Phage particles were harvested and resuspended in PBS buffer as described in Lowman, H. B., "Phage Display of Peptide Libraries on Protein Scaffolds," in Cabilly, S. (ed.), *Combinatorial Peptide Library Protocols* (Humana Press Inc.: Totowa, N.J., 1998), pp. 249–264. Then phage concentrations were normalized to yield a maximal ELISA signal of 0.2–0.4 for each mutant (Lowman, in Cabilly, S. (ed.), supra). Threefold serial dilutions of soluble competitor were prepared on non-absorbent microtiter plates (Nunc, F, 96 wells) with binding buffer (0.5% TWEEN™ 20/PBS) containing phage at the previously-determined concentrations. The dilution range of competitor protein extended over six orders of magnitude, starting at 5 µM for IGFBP-1 and 500 nM for IGFBP-3. After blocking, the plates containing immobilized target were washed with 0.05% TWEEN™/PBS buffer and subsequently incubated with 80 µl/well of the premixed phage-competitor solutions for 1 hour at room temperature. […] Numbers in Table I represent mean±standard deviation of individually assessed $IC50$ values.
(§2) At least two different clones of every mutant were tested.
A general note: An ELISA detects its analyte on a solid surface through an enzyme-linked reagent.

Experiment [4] has as its target T1, human IGFBP-1. Nature of the experiment: phage ELISA value repeated from Table I; IC50mut/IC50 G1S-A70V.
For experiment [5], the target named is T2, recombinant human IGFBP-3. The description is as above.
In experiment [6] the target is T3, human IGFBP-1 (human), P08833.
T3 chain: T1 sequence (looked up)
Kind of experiment: competitive phage ELISA; IC50mut/IC50 G1S-A70V. The settings on record: remark: other sources report otherwise.

For experiment [7] the target is unchanged. Kind of experiment: phage ELISA value repeated from Table I; IC50mut/IC50 G1S-A70V. The note with it: remark: other sources report otherwise.
In experiment [8] the target is T2, recombinant human IGFBP-3. Nature of the experiment: competitive phage ELISA, IGFBP-3-coated wells, soluble IGFBP-3 competitor (FIG. 3B). As for the experimental part:
Phage particles were harvested and resuspended in PBS buffer as described in Lowman, H. B., "Phage Display of Peptide Libraries on Protein Scaffolds," in Cabilly, S. (ed.), *Combinatorial Peptide Library Protocols* (Humana Press Inc.: Totowa, N.J., 1998), pp. 249–264. Then phage concentrations were normalized to yield a maximal ELISA signal of 0.2–0.4 for each mutant (Lowman, in Cabilly, S. (ed.), supra). Threefold serial dilutions of soluble competitor were prepared on non-absorbent microtiter plates (Nunc, F, 96 wells) with binding buffer (0.5% TWEEN™ 20/PBS) containing phage at the previously-determined concentrations. The dilution range of competitor protein extended over six orders of magnitude, starting at 5 µM for IGFBP-1 and 500 nM for IGFBP-3.

Experiment [9] deals with T2, recombinant human IGFBP-3. Kind of experiment: competitive phage ELISA. The method, then: as §1, §2

T2 sequence (P17936 28-291): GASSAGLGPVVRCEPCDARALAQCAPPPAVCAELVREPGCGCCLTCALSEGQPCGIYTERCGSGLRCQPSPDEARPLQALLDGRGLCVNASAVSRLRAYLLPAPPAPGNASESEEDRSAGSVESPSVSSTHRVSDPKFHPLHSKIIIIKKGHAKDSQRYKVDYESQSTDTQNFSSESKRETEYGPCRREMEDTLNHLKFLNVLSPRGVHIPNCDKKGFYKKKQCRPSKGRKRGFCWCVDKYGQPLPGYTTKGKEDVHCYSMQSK

As for “IGF-I T29A displayed on phage (from UniProt P69168 267-424) (ligand)”, the relative IC50 in the experiment with human IGFBP-1 [1] amounted to 0.9; in experiment [2], 1.6.

On to “IGF-I Y31A displayed on phage (from UniProt P69168 267-424) (ligand)”, for which the relative IC50 amounted to 0.8 with human IGFBP-1 [1] and 1 in experiment [2].

Consider “IGF-I S34A displayed on phage (from UniProt P69168 267-424) (ligand)”, for which the relative IC50 with human IGFBP-1 [1] was 1.2; in experiment [2] it was 2.2.

As for “IGF-I G7A displayed on phage (from UniProt P69168 267-424) (ligand)”, the relative IC50 with human IGFBP-1 [1] is more than 100; in experiment [2] it was 6.1.

Consider “IGF-I P28A displayed on phage (from UniProt P69168 267-424) (ligand)”, for which the relative IC50 with human IGFBP-1 [1] stood at 1.1; in [2], 1.9.

As for “IGF-I S33A displayed on phage (from UniProt P69168 267-424) (ligand)”, the relative IC50 is 1.1 with human IGFBP-1 [1] and 1.3 in experiment [2].

For the molecule “IGF-I G32A displayed on phage (from UniProt P69168 267-424) (ligand)”, the relative IC50 stood at 1.3 in the experiment with human IGFBP-1 [1] and 1 in experiment [2].

On to “IGF-I G30A displayed on phage (from UniProt P69168 267-424) (ligand)”, for which the relative IC50 with human IGFBP-1 [1] was 0.9; in [2] it was 0.8.

A word on the IC50: it is the concentration that inhibits the measured activity by half. The molecule “Ala(1-3)-IGF-I displayed on phage (from UniProt P69168 267-424) (ligand)” displayed a half-maximal inhibitory concentration (IC50) with human IGFBP-1 [3] of 90.4 nM. Besides, the relative IC50 is 11 in the experiment with human IGFBP-1 [1] and 1.5 in [2].

Regarding “IGF-I G1S-A70V displayed on phage (from UniProt P69168 267-424) (ligand)”, the relative IC50 (with human IGFBP-1 [1]; in experiment [2]; in the experiment with human IGFBP-1 [4]; in experiment [5]) was 1 each time.

B1: IGF-I F49A displayed on phage (ligand)
chain: SPETLCGAELVDALQFVCGDRGFYFNKPTGYGSSSRRAPQTGIVDECCARSCDLRRLEMYCAPLKPAKSV
notes: On phage; G1S-A70V template; also called IGF-F49A phage; not shown: Display partner: M13 gene III protein fragment (residues 249-406, mature count) and the junction to it
Take B1: the relative IC50 in [6] and in experiment [7] was more than 100 each time. The “ratio of IC50 against G1S-A70V phage” value in experiment [8] is less than 4 fold.

B2: IGF-I L57A displayed on phage (ligand)
chain: B1 chain with A49F, L57A
notes: On phage; G1S-A70V template; not shown: M13 gene III protein fragment (residues 249-406), the phage display carrier, and its junction to IGF-I
Regarding B2, the concentration for half-maximal inhibition (IC50) with human IGFBP-1 [3] is 21.8 nM; in [9] it was 1.78 nM.

B3: IGF-I V17A displayed on phage (ligand)
chain: B1 chain with V17A, A49F
notes: On phage; G1S-A70V template; not shown: M13 gene III fragment (residues 249-406), the display carrier, and its junction
For the molecule B3, the IC50 worked out at 42.9 nM with human IGFBP-1 [3] and 3.67 nM in [9].

B4: IGF-I R37A displayed on phage (ligand, not shown: large carriers)
chain: B1 chain with R37A, A49F
notes: On phage; G1S-A70V template
With B4, the values for the half-maximal inhibitory concentration (IC50) (with human IGFBP-1 [3]; in [9]) were 12.3 nM and 0.75 nM, respectively.

B5: IGF-I Y60A displayed on phage (ligand)
chain: B1 chain with A49F, Y60A
notes: as for B2
Take B5: the half-inhibitory concentration (IC50) with human IGFBP-1 [3] was 6.6 nM; in experiment [9], 0.52 nM.

B6: IGF-I L10A displayed on phage (ligand)
chain: B1 chain with L10A, A49F
notes: as for B3
As for B6, the IC50 was 311 nM in the experiment with human IGFBP-1 [3] and 3.55 nM in experiment [9].

B7: IGF-I P66A displayed on phage (ligand)
chain: B1 chain with A49F, P66A
notes: as for B2
For B7, the values for the half-maximal inhibitory concentration (IC50) (with human IGFBP-1 [3]; in experiment [9]) were 9.4 nM and 0.57 nM, respectively.

B8: IGF-I Y24A displayed on phage (ligand)
chain: B1 chain with Y24A, A49F
notes: On phage; G1S-A70V template; not shown: Display carrier: M13 gene III protein fragment (residues 249-406) and the junction to it
Regarding B8, the results for the IC50 (with human IGFBP-1 [3]; in [9]) were 13.3 nM and 2.53 nM, respectively.

B9: IGF-I L64A displayed on phage (ligand)
chain: B1 chain with A49F, L64A
notes: as for B2
Take B9: the half-maximal inhibitory concentration (IC50) in the experiment with human IGFBP-1 [3] came out at 12.1 nM; in [9], 0.93 nM.

B10: IGF-I Q15A displayed on phage (ligand)
chain: B1 chain with Q15A, A49F
notes: as for B3
On to B10, for which the figures for the IC50 (with human IGFBP-1 [3]; in experiment [9]) were 13.9 nM and 1.26 nM, respectively.

B11: IGF-I R56A displayed on phage (ligand)
chain: B1 chain with A49F, R56A
notes: On phage; G1S-A70V template; not shown: Display partner: M13 gene III protein fragment (residues 249-406, mature count) and the junction to it
With B11, the 50% inhibitory concentration (IC50) with human IGFBP-1 [3] was determined as 13.1 nM; in [9] it was 1 nM.

B12: IGF-I R21A displayed on phage (ligand)
chain: B1 chain with R21A, A49F
notes: as for B8
For the molecule B12, the IC50 with human IGFBP-1 [3] stood at 7.1 nM; in [9], 0.58 nM.

B13: IGF-I L54A displayed on phage (ligand)
chain: B1 chain with A49F, L54A
notes: as for B11
Consider B13, for which the 50% inhibitory concentration (IC50) with human IGFBP-1 [3] was 23.1 nM; in experiment [9] it was 1.83 nM.

B14: IGF-I M59A displayed on phage (ligand)
chain: B1 chain with A49F, M59A
notes: as for B2
As to B14, the IC50 with human IGFBP-1 [3] was found to be 13.1 nM; in [9], 0.74 nM.

B15: IGF-I L14A displayed on phage (ligand)
chain: B1 chain with L14A, A49F
notes: as for B3
As to B15, the concentration for half-maximal inhibition (IC50) with human IGFBP-1 [3] is 36.7 nM; in experiment [9], 0.9 nM.

B16: IGF-I R55A displayed on phage (ligand)
chain: B1 chain with A49F, R55A
notes: as for B11
In the case of B16, the half-inhibitory concentration (IC50) amounted to 9 nM with human IGFBP-1 [3] and 0.66 nM in [9].

B17: IGF-I S51A displayed on phage (ligand)
chain: B1 chain with A49F, S51A
notes: as for B11
Turning to B17, the IC50 in the experiment with human IGFBP-1 [3] was found to be 13.4 nM; in experiment [9] it was 0.65 nM.

B18: IGF-I S69A displayed on phage (ligand, not shown: large carriers; small tags and cut ends)
chain: B1 chain with A49F, S69A
notes: On phage; G1S-A70V template
Regarding B18, the figures for the IC50 (with human IGFBP-1 [3]; in experiment [9]) were 12.8 nM and 0.71 nM, respectively.

B19: IGF-I S35A displayed on phage (ligand, not shown: large carriers)
chain: B1 chain with S35A, A49F
notes: On phage; G1S-A70V template
For the molecule B19, the IC50 with human IGFBP-1 [3] worked out at 11.7 nM; in [9], 0.47 nM.

B20: IGF-I Q40A displayed on phage (ligand, not shown: large carriers)
chain: B1 chain with Q40A, A49F
notes: On phage; G1S-A70V template
In the case of B20, the values for the IC50 (with human IGFBP-1 [3]; in experiment [9]) were 10.2 nM and 0.56 nM, respectively.

B21: IGF-I N26A displayed on phage (ligand)
chain: B1 chain with N26A, A49F
notes: as for B8
With B21, the values for the IC50 (in the experiment with human IGFBP-1 [3]; in experiment [9]) were 9.1 nM and 0.9 nM, respectively.

B22: IGF-I T4A displayed on phage (ligand, not shown: large carriers; small tags and cut ends)
chain: B1 chain with T4A, A49F
notes: On phage; G1S-A70V template
B22: the IC50 with human IGFBP-1 [3] turned out to be 19.4 nM; in experiment [9] it was 0.8 nM.
